The values that follow come from patent US20220275088A1 (Dana-Farber, published 2022).

Assay [1] deals with human PD-1 on cells (transfected Expi293 cells, PHA-cultured T cells, cells of the Promega PD1-PDL1 bioassay, … (human, UniProt Q15116 25-288)). Kind of assay: cell-based or functional assay.
The target of assay [2] is T1, mouse PD-1 on transiently transfected Expi293 cells (mouse, UniProt Q02242 25-288).
T1 construct: whole, on cells; also called mPD-1
T1 sequence (looked up): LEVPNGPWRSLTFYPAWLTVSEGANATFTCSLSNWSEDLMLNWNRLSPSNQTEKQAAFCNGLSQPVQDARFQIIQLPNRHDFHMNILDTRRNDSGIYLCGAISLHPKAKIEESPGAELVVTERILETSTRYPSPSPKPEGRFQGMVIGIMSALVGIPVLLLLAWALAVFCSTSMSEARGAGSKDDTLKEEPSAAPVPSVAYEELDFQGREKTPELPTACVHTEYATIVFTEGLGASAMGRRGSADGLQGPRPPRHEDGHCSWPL
As to the kind of experiment: flow cytometry on transiently transfected Expi293 cells, anti human Fc-APC. As for the experimental part:
3E5 transiently transfected Expi293 cells were suspended in 100 ul MACS buffer and added to each well. 50 ul of each antibody dilution were then mixed with the cells and the plate was incubated at 4° C. for 30 min. Following incubation, the plate was washed 2× with MACS buffer and then incubated with 1 ul/well anti human Fc-APC (Biolegend #409306). The plate was incubated for 25 min at 4° C. and then washed 3× before running the samples.

Sequence of human PD-1 on cells (transfected Expi293 cells, PHA-cultured T cells, cells of the Promega PD1-PDL1 bioassay, … (Q15116 25-288): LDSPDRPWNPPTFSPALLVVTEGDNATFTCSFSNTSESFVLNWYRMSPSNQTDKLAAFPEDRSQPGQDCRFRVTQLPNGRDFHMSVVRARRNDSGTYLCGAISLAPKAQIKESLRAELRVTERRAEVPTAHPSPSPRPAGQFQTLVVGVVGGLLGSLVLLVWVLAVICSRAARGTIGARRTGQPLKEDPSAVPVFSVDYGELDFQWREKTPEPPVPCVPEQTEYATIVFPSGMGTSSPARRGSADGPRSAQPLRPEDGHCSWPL

B1: P4-B3 IgG1 wild type monomer (antibody, V domains shown)
VH: QVQLVQSGGGLVQPGRSLRLSCAASGFTFDDYAMHWVRQAPGKGLEWVSGISWNSGSIGYADSVKGRFTVSRDNAKNSLYLQMNSLRAEDTAVYYCASDYGDKYYYYGMDVWGKGTTVTVSS
VL: QPGLTQPPSASGTPGQRVTISCSGSSSNIGSNTVNWYQQFPGKAPKLLIFNDNQRPSGVPDRFSASKSGTSASLAISGLQSEDEADYYCAAWDGGLNGRGVFGGGTKLTVLG
In the case of B1, the “fold induction (RLU stimulated/RLU unstimulated), Promega PD1-PDL1 bioassay” value in assay [1] was ~0.5 fold of the signal of pembro and nivo.

B2: P4-B3 (Example 8, format not stated) (antibody, V domains shown)
VH: QVQLVQSGGGLVQPGRSLRLSCAASGFTFDDYAMHWVRQAPGKGLEWVSGISWNSGSIGYADSVKGRFTVSRDNAKNSLYLQMNSLRAEDTAVYYCASDYGDKYYYYGMDVWGKGTTVTVSS
VL: QPGLTQPPSASGTPGQRVTISCSGSSSNIGSNTVNWYQQFPGKAPKLLIFNDNQRPSGVPDRFSASKSGTSASLAISGLQSEDEADYYCAAWDGGLNGRGVFGGGTKLTVL
notes: Detected with anti human Fc-APC, so it carries a human Fc
For the molecule B2, the binding result in assay [2] is listed as “binds”.
